Experimental data: US20240368565A1, “COMPLEMENTATION-BASED TAGS AND REPORTERS FOR DUAL-MODALITY LABELING” (Promega Corporation, priority 2023, published 2024)

Assays:
DualTag peptide [1] = assay: Dissociation kinetics after complementation with synthetic peptide (dilution, luminescence); conditions: 100 nM protein, 200 nM peptide, diluted to 1 pM, furimazine
Experimental: After preincubation with peptide, samples were diluted to 1 pM in either buffer alone or buffer 100 nM Tag peptide. At various time points, samples were transferred into luminescent substrate (Furimazine) to monitor dissociation of the complex.

DualTag peptide [2] = assay: BRET measurement of reporter stabilization by synthetic peptide; assay type: biochemical; conditions: room temperature, HaloTag NanoBRET 618 Ligand, versus LgHT-LgBiT alone
Experimental: FIG. 122A-C. […] After preincubation with peptide at 4° C., solutions were diluted 100-fold into buffer and incubated at room temperature. At time points, samples were added 1:1 to buffer either containing or lacking 10 nM final HaloTag® NanoBRET® 618 Ligand. For the reporter alone condition, samples were added 1:1 to a solution containing 10 nM final VS-HiBiT peptide with or without the 618 ligand in order to complement the LgBiT to create the BRET donor. After the last time point, furimazine substrate was added, followed by measuring the FIG. 122(A) luminescent donor signal using a 450 nm bandpass filter and FIG. 122(B) luminescent acceptor signal using a 600 nm longpass filter. The BRET ratio FIG. 122(C) is determined by dividing the acceptor signal by the donor signal for each sample.

B1: LgHT-LgBiT: tandem polypeptide reporter (Reporter) of FIG. 120, 122, 124 (protein)
chain: MFHYVDVGPRDGTPVLFLHGNPTSSYVWRNIIPHVAPTHRCIAPDLIGMGKSDKPDLGYFFDDHVRFMDAFIEALGLEEVVLVIHDWGSALGFHWAKRNPERVKGIAFMEFIRPIPTWDEWPEFARETFQAFRTTDVGRKLIIDQNVFIEGTLPMGVVRPLTEVEMDHYREPFLNPVDREPLWRFPNELPIAGEPANIVALVEEYMDWLHQSPVPKLLFWGTPGVLIPPAEAARLAKSLPNCKAVDIGPGLNLLQEDNPDLIGSEIARWLSTLEISGGSGGSGGGGSGGMVFTLEDFVGDWEQTAAYNLDQVLEQGGVSSLLQNLAVSVTPIQRIVRSGENALKIDIHVIIPYEGLSADQMAQIEEVFKVVYPVDDHHFKVILPYGTLVIDGVTPNMLNYFGRPYEGIAVFDGKKITVTGTLWNGNKIIDERLITPDGSMLFRVTINSGSGHHHHHH
B1 was tested, and the “Dissociation from the DualTag peptide” value (DualTag peptide [1]) was “exceptionally slow dissociation kinetics” and the “LgBiT luminescence and LgHT ligand binding activity over time (Raw BRET ratio)” value (DualTag peptide [2]) was “remain intact for longer”.
